Assay results: US20170210777A1 (FUJIFILM, published 2017)
Square brackets hold non-standard residues; d marks the D form. Ends that are not written are not given here. peg8 = octa(ethylene glycol) chain, 8 ethylene glycol units

Key:
[1] = molecular target: T1, human IgG antibody (human); test: SPR (Biacore), ligand immobilised on CM5
T1 construct: Injected at 10 to 3000 nM over the immobilised ligands in SPR

[2] = molecular target: T2, Bovine Serum Albumin (BSA, manufactured by Sigma-Aldrich) (bovine, UniProt P02769 25-607); test: SPR, ligand immobilised on CM5, BSA injected 10 min at 25 C
T2 construct: Injected at 1000 nM over the immobilised ligands in SPR (selectivity test)

[3] = molecular target: T1, human IgG antibody; test: SPR (Biacore), ligand immobilised on CM5, fit with BIAevaluation 4.1

T2 sequence (P02769 25-607 limits assumed): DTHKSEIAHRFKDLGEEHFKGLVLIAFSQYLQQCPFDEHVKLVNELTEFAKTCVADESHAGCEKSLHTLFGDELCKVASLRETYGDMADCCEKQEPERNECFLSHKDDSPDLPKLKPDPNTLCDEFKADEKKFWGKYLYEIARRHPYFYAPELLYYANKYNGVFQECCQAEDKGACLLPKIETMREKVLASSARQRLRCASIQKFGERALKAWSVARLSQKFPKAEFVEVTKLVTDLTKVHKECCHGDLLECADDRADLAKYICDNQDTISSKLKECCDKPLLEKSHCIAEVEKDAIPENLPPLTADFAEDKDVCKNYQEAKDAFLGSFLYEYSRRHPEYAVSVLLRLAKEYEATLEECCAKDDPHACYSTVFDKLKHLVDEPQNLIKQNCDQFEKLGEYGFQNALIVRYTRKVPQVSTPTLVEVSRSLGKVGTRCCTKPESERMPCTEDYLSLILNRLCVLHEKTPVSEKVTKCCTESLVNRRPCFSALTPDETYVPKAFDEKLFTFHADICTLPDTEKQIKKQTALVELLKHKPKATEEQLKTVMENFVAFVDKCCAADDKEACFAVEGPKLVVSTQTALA

Row | Binder | koff [1] | binding result [2] | koff [3]
1 | EQSAFY (Synthetic peptide, immobilised on a CM5 sensor chip; also called immobilized carrier O) [polypeptide as set forth in SEQ ID NO: 15 (EQSAFY)] | 0.00014 s⁻¹ | no binding (tested: 1000 nM) | –
2 | DQSAFY (Synthetic peptide, immobilised on a CM5 sensor chip; also called immobilized carrier R) [polypeptide as set forth in SEQ ID NO: 18 (DQSAFY)] | 0.00019 s⁻¹ | no binding (tested: 1000 nM) | –
3 | EQNAFY (Synthetic peptide, immobilised on a CM5 sensor chip; also called immobilized carrier I) [polypeptide as set forth in SEQ ID NO: 9 (EQNAFY)] | 0.00017 s⁻¹ | no binding (tested: 1000 nM) | –
4 | Ac-KKKEQQNAFYEILHKKK (Synthetic peptide, immobilised on a CM5 sensor chip; also called immobilized carrier W) [polypeptide Ac-KKKEQQNAFYEILHKKK (SEQ ID NO: 23)] | 0.00016 s⁻¹ | no binding (tested: 1000 nM) | –
5 | QQNAFYEI (Synthetic comparative peptide, immobilised on a CM5 sensor chip; also called immobilized carrier AC) [polypeptide as set forth in SEQ ID NO: 26 (QQNAFYEI)] | 0.00024 s⁻¹ | – | –
6 | EQQSAFYEILH (Synthetic peptide, immobilised on a CM5 sensor chip; also called immobilized carrier K) [polypeptide as set forth in SEQ ID NO: 11 (EQQSAFYEILH)] | 0.00018 s⁻¹ | no binding (tested: 1000 nM) | –
7 | EQQNAFYEILH (Synthetic peptide, immobilised on a CM5 sensor chip; also called immobilized carrier C) [polypeptide as set forth in SEQ ID NO: 3 (EQQNAFYEILH)] | 0.00017 s⁻¹ | no binding (tested: 1000 nM) | –
8 | DQQSAFYEILH (Synthetic peptide, immobilised on a CM5 sensor chip; also called immobilized carrier M) [polypeptide as set forth in SEQ ID NO: 13 (DQQSAFYEILH)] | 0.00015 s⁻¹ | no binding (tested: 1000 nM) | –
9 | KKKEQQNAFYEILHKKK (Synthetic peptide, immobilised on a CM5 sensor chip; also called immobilized carrier G) [polypeptide as set forth in SEQ ID NO: 7 (KKKEQQNAFYEILHKKK)] | 0.00016 s⁻¹ | no binding (tested: 1000 nM) | –
10 | Ac-EQQNAFYK (Synthetic peptide, immobilised on a CM5 sensor chip; also called immobilized carrier T) [polypeptide Ac-EQQNAFYK (SEQ ID NO: 20)] | 0.00014 s⁻¹ | no binding (tested: 1000 nM) | –
11 | peg8-EQQNAFYE (Synthetic peptide, immobilised on a CM5 sensor chip; also called immobilized carrier X) [polypeptide H2N-(peg)8-EQQNAFYE (SEQ ID NO: 24)] | 0.00013 s⁻¹ | no binding (tested: 1000 nM) | –
12 | EAQQSAFY (Synthetic peptide, immobilised on a CM5 sensor chip; also called immobilized carrier N) [polypeptide as set forth in SEQ ID NO: 14 (EAQQSAFY)] | 0.00014 s⁻¹ | no binding (tested: 1000 nM) | –
13 | EAQQNAFY (Synthetic peptide, immobilised on a CM5 sensor chip; also called immobilized carrier P) [polypeptide as set forth in SEQ ID NO: 16 (EAQQNAFY)] | 0.00019 s⁻¹ | no binding (tested: 1000 nM) | –
14 | DAQQSAFY (Synthetic peptide, immobilised on a CM5 sensor chip; also called immobilized carrier Q) [polypeptide as set forth in SEQ ID NO: 17 (DAQQSAFY)] | 0.00013 s⁻¹ | no binding (tested: 1000 nM) | –
15 | KEQQNAFY (Synthetic peptide, immobilised on a CM5 sensor chip; also called immobilized carrier B) [polypeptide as set forth in SEQ ID NO: 2 (KEQQNAFY)] | 0.00013 s⁻¹ | no binding (tested: 1000 nM) | –
16 | KKKEQQNAFYKKK (Synthetic peptide, immobilised on a CM5 sensor chip; also called immobilized carrier F) [polypeptide as set forth in SEQ ID NO: 6 (KKKEQQNAFYKKK)] | 0.00015 s⁻¹ | no binding (tested: 1000 nM) | –
17 | Ac-EQQNAFY[peg8]K[peg8]EQQNAFY (Synthetic fusion polypeptide, 15 amino acid residues, the two units and the central Lys joined by PEG linkers and not by peptide bonds; immobilised on a CM5 sensor chip; also called immobilized carrier Y) [fusion polypeptide Ac-EQQNAFY-(peg)8-K-(peg)8-EQQNAFY (SEQ ID NO: 25)] | 0.00019 s⁻¹ | no binding (tested: 1000 nM) | –
18 | EQQNAFY (Synthetic peptide, immobilised on a CM5 sensor chip by EDC/NHS coupling; also called polypeptide 1) [polypeptide as set forth in SEQ ID NO: 1 (EQQNAFY)] | – | no binding (tested: 1000 nM) | 0.00017 s⁻¹
19 | EGQNAFY (Synthetic peptide, immobilised on a CM5 sensor chip; also called immobilized carrier E) [polypeptide as set forth in SEQ ID NO: 5 (EGQNAFY)] | 0.0002 s⁻¹ | no binding (tested: 1000 nM) | –
20 | DQQSAFY (Synthetic peptide, immobilised on a CM5 sensor chip; also called immobilized carrier L) [polypeptide as set forth in SEQ ID NO: 12 (DQQSAFY)] | 0.00015 s⁻¹ | no binding (tested: 1000 nM) | –
21 | EQQSAFY (Synthetic peptide, immobilised on a CM5 sensor chip; also called immobilized carrier J) [polypeptide as set forth in SEQ ID NO: 10 (EQQSAFY)] | 0.00015 s⁻¹ | no binding (tested: 1000 nM) | –
22 | EQQNAFY-NH2 (Synthetic peptide, immobilised on a CM5 sensor chip; also called immobilized carrier S) [polypeptide EQQNAFY-NH2 (SEQ ID NO: 19)] | 0.00015 s⁻¹ | no binding (tested: 1000 nM) | –
23 | EQQNAFYEILHL (Synthetic peptide, immobilised on a CM5 sensor chip; also called immobilized carrier D) [polypeptide as set forth in SEQ ID NO: 4 (EQQNAFYEILHL)] | 0.00013 s⁻¹ | no binding (tested: 1000 nM) | –
24 | Ac-EQQNAFYEILHK (Synthetic peptide, immobilised on a CM5 sensor chip; also called immobilized carrier U) [polypeptide Ac-EQQNAFYEILHK (SEQ ID NO: 21)] | 0.00016 s⁻¹ | no binding (tested: 1000 nM) | –
25 | EQQNAFYGGGKGGGEQQNAFY (Synthetic fusion polypeptide of two EQQNAFY units with a GGGKGGG linker, immobilised on a CM5 sensor chip; also called immobilized carrier H) [polypeptide as set forth in SEQ ID NO: 8 (EQQNAFYGGGKGGGEQQNAFY)] | 0.00015 s⁻¹ | no binding (tested: 1000 nM) | –
26 | Ac-KKKEQQNAFYKKK (Synthetic peptide, immobilised on a CM5 sensor chip; also called immobilized carrier V) [polypeptide Ac-KKKEQQNAFYKKK (SEQ ID NO: 22)] | 0.00015 s⁻¹ | no binding (tested: 1000 nM) | –
